B1: HHV8 protein KCP expressed on cells (gD-GPI construct or full-length protein) (other)
chain: QDNEKCSQKTLIGYRLKMSRDGDIAVGETVELRCRSGYTTYARNITATCLQGGTWSEPTATCNKKSCPNPGEIQNGKVIFHGGQDALKYGANISYVCNEGYFLVGREYVRYCMIGASGQMAWSSSPPFCEKEKCHRPKIENGDFKPDKDYYEYNDAVHFECNEGYTLVGPHSIACAVNNTWTSNMPTCELAGCKFPSVTHGYPIQGFSLTYKHKQSVTFACNDGFVLRGSPTITCNVTEWDPPLPKCVLEDIDDPNNSNPGRLHPTPNEKPNGNVFQRSNYTEPPTKPEDTHTAATCDTNCEQPPKILPTSEGFNETTTSNTITKQLEDEKTTSQPNTHITSALTSMKAKGNFTNKTNNSTDLHIASTPTSQDDATPSIPSVQTPNYNTNAPTRTLTSLHIEEGPSNSTTSEKATASTLSHNSHKNDTGGIYTTLNKTTQLPSTNKPTNSQAKSSTKPRVETHNKTTSNPAISLTDSADVPQRPREPTLPPIFRPPASKNRYL
notes: also called HHV8 KCP
B2: VZV protein gB, soluble (captured on beads or assayed directly in supernatants) (other)
chain: VSPSSFYESLQVEPTQSEDITRSAHLGDGDEIREAIHKSQDAETKPTFYVCPPPTGSTIVRLEPTRTCPDYHLGKNFTEGIAVVYKENIAAYKFKATVYYKDVIVSTAWAGSSYTQITNRYADRVPIPVSEITDTIDKFGKCSSKATYVRNNHKVEAFNEDKNPQDMPLIASKYNSVGSKAWHTTNDTYMVAGTPGTYRTGTSVNCIIEEVEARSIFPYDSFGLSTGDIIYMSPFFGLRDGAYREHSNYAMDRFHQFEGYRQRDLDTRALLEPAARNFLVTPHLTVGWNWKPKRTEVCSLVKWREVEDVVRDEYAHNFRFTMKTLSTTFISETNEFNLNQIHLSQCVKEEARAIINRIYTTRYNSSHVRTGDIQTYLARGGFVVVFQPLLSNSLARLYLQELVRENTNHSPQKHPTRNTRSRRSVPVELRANRTITTTSSVEFAMLQFTYDHIQEHVNEMLARISSSWCQLQNRERALWSGLFPINPSALASTILDQRVKARILGDVISVSNCPELGSDTRIILQNSMRVSGSTTRCYSRPLISIVSLNGSGTVEGQLGTDNELIMSRDLLEPCVANHKRYFLFGHHYVYYEDYRYVREIAVHDVGMISTYVDLNLTLLKDREFMPLQVYTRDELRDTGLLDYSEIQRRNQMHSLRFYDIDKVVQYDSGTAIMQGMAQFFQGLGTAGQAVGHVVLGATGALLSTVHGFTTFLSNP
notes: also called VZV gB
B3: HAVCR1 expressed on cells (gD-GPI construct or full-length protein) (receptor)
chain: SVKVGGEAGPSVTLPCHYSGAVTSMCWNRGSCSLFTCQNGIVWTNGTHVTYRKDTRYKLLGDLSRRDVSLTIENTAVSDSGVYCCRVEHRGWFNDMKITVSLEIVPPKVTTTPIVTTVPTVTTVRTSTTVPTTTTVPMTTVPTTTVPTTMSIPTTTTVLTTMTVSTTTSVPTTTSIPTTTSVPVTTTVSTFVPPMPLPRQNHEPVATSPSSPQPAETHPTTLQGAIRREPTSSPLYSYTTDGNDTVTESSDGLWNNNQTQLFLEHSLLTANTTKGIYAGVCISVLVLLALLGVIIAKKYFFKKEVQQLSVSFSSLQIKALQNAVEKEVQAEDNIYIENSLYATD
notes: whole, on cells

Tests used:
[1] = biological target: T1, FLRT1 (in supernatants) (human, UniProt Q9NZU1 49-552); experiment: cell-based immunofluorescence validation (FIG. 17): receptor in supernatants, KCP on cells
T1 sequence: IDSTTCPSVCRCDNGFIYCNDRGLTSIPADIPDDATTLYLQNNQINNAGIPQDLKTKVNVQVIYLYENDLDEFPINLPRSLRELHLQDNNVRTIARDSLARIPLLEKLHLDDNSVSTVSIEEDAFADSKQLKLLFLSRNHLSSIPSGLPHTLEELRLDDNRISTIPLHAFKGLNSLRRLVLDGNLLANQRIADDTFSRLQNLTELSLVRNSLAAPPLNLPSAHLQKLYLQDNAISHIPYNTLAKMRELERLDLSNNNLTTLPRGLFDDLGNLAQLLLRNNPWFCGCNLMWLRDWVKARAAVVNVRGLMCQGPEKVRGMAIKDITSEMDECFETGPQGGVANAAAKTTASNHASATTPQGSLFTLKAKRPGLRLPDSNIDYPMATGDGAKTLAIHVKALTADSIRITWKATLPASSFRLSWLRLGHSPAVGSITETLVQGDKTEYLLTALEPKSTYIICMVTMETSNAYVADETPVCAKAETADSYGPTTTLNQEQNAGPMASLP

[2] = biological target: T2, FLRT2 (in supernatants) (human, UniProt O43155 36-541); experiment: as above
T2 sequence: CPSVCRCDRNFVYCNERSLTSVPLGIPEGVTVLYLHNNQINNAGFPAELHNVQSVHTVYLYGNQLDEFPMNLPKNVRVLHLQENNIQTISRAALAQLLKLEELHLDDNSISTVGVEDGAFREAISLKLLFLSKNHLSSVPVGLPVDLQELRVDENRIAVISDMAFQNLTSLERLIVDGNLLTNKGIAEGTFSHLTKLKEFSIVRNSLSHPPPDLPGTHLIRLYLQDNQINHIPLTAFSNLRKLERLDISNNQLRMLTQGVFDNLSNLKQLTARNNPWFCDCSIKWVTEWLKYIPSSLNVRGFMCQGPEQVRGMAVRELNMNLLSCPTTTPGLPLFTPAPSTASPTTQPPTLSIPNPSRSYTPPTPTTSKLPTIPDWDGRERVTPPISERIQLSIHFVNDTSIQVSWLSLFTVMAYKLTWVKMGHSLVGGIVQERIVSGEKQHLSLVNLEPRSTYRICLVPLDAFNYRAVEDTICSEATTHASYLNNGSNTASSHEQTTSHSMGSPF

[3] = biological target: T3, MUSK expressed on cells (gD-GPI construct or full-length protein) (human, UniProt O15146 24-869); experiment: cell-based immunofluorescence validation (FIG. 15): gB on beads or in supernatants, MUSK on cells
T3 construct: whole, on cells
T3 sequence: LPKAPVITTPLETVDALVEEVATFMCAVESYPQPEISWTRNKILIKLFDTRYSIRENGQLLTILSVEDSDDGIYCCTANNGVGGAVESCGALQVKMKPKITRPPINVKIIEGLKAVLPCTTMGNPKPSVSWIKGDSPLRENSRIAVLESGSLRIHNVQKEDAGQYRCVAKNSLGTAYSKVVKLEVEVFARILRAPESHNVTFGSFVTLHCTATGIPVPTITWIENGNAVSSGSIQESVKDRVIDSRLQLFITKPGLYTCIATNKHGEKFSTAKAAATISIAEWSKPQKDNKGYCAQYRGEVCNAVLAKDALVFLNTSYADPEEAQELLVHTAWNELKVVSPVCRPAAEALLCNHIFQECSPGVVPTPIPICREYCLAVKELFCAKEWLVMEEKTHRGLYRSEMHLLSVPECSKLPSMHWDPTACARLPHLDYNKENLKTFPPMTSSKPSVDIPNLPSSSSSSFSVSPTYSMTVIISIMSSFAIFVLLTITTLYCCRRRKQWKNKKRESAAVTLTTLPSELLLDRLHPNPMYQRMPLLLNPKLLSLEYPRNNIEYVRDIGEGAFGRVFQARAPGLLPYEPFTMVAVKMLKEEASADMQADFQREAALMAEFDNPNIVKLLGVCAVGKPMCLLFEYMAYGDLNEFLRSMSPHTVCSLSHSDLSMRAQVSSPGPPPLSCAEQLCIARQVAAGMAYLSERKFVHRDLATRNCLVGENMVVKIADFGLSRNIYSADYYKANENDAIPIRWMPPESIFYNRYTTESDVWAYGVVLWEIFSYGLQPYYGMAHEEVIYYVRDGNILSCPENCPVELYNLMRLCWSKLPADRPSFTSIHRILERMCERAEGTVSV

[4] = biological target: B2; experiment: cell-based immunofluorescence validation (FIG. 16): gB on beads or in supernatants, HAVCR1 on cells

## B1
[1]
  binding result: binds
[2]
  binding result: binds

## B2
[3]
  binding result: binds

## B3
[4]
  binding result: binds

Reference: patent US20240011017A1 (Genentech, published 2024)
